The series can be described thus: soluble on expression in E. coli; label from the status in PepcDB or PDB records.
Regarding “GHMKGLTEKLMILSHQSIKNLLGKVILNYSEENVRENGYDLRICGDKYYELVQGAELPEKKATLREIEFKERAILSANHTYLFESCEEFNMPADLAVLITLKSTLARNGFLAPPTVIDAGYKGKVNVAITAVYNSSLKKGMATHHLIFLKLDKPTERLYNGKYQGGILI”, the “soluble on expression in E. coli” value is “soluble”.

For “GSATASDSTRRVSVRDKLLVKEVAELEANLPCTCKVHFPDPNKLHCFQLTVTPDEGYYQGGKFQFETEVPDAYNMVPPKVKCLTKIWHPNITETGEICLSLLREHSIDGTGWAPTRTLKDVVWGLNSLFTDLLNFDDPLNIEAAEHHLRDKEDFRNKVDDYIKRYAR”, the “soluble on expression in E. coli” value is “soluble”. Next, “MAQSKILLYYKFTPIADPKAMMLWQRDMCELLGLKGRILISEHGINGTVGGDMDACKRYVRKMREYPGFRGTEFKWSDGGAEDFPKLSVKVRDEIVAFGAPGELKVDEKGVIGGGVHLKPEEVNKLVEERGDDVVFFDGRNAMEAQIGKFKNAVVPDVRTTHDFIRELESGKYDWMKDKPVVSYCTGGIRCEILSSLMKNRGFKEIYQIDGGIVRYGEKYGNDGLWEGSLYVFDRRMHMEFGNGVQDPGFIQLGHCVQCGAPTNKFEHCINEDECRELVLMCPDCYENPATRNCGREHCKEVAAEAAAAAAV”: “not soluble”; “MGHHHHHHSHMKKLICISLYEDLSMTTYDLSKVDNAELIGIVENASEGTLFVFTCDRPNGSSVIMCPGGGFLKTNLENEGIDFAEWFTKLGITYIVFKYRMPHGNPDVPEQDTRLALKVVREKFPEFCDKLGVMGASIGGYLATFSATLLPDDEKPDFQILMYPVVSVDDRLTHFPCRERMFGHSYSPDKMEQYSPIEHITSGTPAAFIVAAADDAVVSPLNGIMYAARLQKADIPISLHIYPAGGHGFGYNDSFVYKQEWLQELGEWLAKL”: “soluble”; “TITNILLVGVGGQGILLASEILSEAFMLAGFDVKKSEIHGMSQRGGSVVSHVRYGKEVHSPIVPEGEGDILFGFELMETYRYLPLLRKGGTVVANDLRISPPSVLLGQASYPDDLPDRIRALFPDFLLVDGQHLAAEAGNVRAANTVLLGAVAKQLDIPDECWHKALERMVPPKALDVNRKAFQLGRAL”: “not soluble”. Then “MTDGPIKVNSEIGALKTVLLKRPGKELENLVPDYLDGLLFDDIPYLEVAQKEHDHFAQVLREEGVEVLYLEKLAAESIENPQVRSEFIDDVLAESKKTILGHEEEIKTLFATLSNQELVDKIMSGVRKEEINPKCTHLVEYMDDKYPFYLDPMPNLYFTRDPQASIGHGITINRMFWRARRRESIFIQYIVKHHPRFKDANIPIWLDRDCPFNIEGGDELVLSKDVLAIGVSERTSAQAIEKLARRIFENPQATFKKVVAIEIPTSRTFMHLDTVFTMIDYDKFTMHSAILKAEGNMNIFIIEYDDVNKDIAIKQSSHLKDTLEDVLGIDDIQFIPTGNGDVIDGAREQWNDGSNTLCIRPGVVVTYDRNYVSNDLLRQKGIKVIEISGSELVRGRGGPRCMSQPLFREDI”, with “not soluble”. Then “MGSDKIHHHHHHMIIKTSFLIVIHAQYAKKVVGKKISIYFTIHSGIKIFVKMKTCARISCFLILAVCSFFDAAAQGNFLLWEITGNGLADTSYLFGTIHIRDKRVFNLGDSTYYAITHTKALYGELNLQDKSEMKQHAPELLMPSGTSLQAMLSAQDYKLVKKYCKKHIGVYALLINKIKPIYISAVVSEDLLKKEEKKPLDLYLQDYAARQGNEIGGIETFQEQLSVIDLLPLQEQADMLVEQIKNIDQEKILMEQMLQFYLNESLDSLEILVQEDTLSQEFNEAILDARNKVMLTRMETQMNREPTFFAVGAAHLAGEKGLVILLRKAGYTVRPVKRK”, with “not soluble”; and “MAFGRRTGKDGGKRKAGHAPVQPADEHVRPEDTVVASAAAASGVEDQEELQGPFDIDDFDDPSVAVLARLDLGSVLIPMPAAGQVQVELTESGVPSAVWVITPNGRYSIAAYAAPKTGGLWREVAGELADSLRKDSAKVSIKDGPWGREVIGIAAGVVRFIGVDGYRWMIRCVVNGPQETVDALTEEAREALADTVVRRGDTPLPVRTPLPVHLPEPMAAQLREAAAAQADTQRQAAAGVARRGAQGSAMQQLRSTTGG”, with “soluble”. For “MITKDVKEQLIQVSGPENFDDSNAGRLVYSYDATPQYQSMPDAVIAPRNTDEISRILTICSEHRVPIVPRGSGTNLCGGTCPTEGGLVLLFKHMNQILEIDEENLTATVQPGVITLDMIRAVESKGLFYPPDPSSMKISTIGGNINENSGGLRGLKYGVTRDYVIGLEVVLANGDIIRTGGKLAKDVAGYDLTRLFVGSEGTLGIVTEAIVKLVPKPETKKTLLALYENIDAAAQTVSDIIAAKIIPATLEFLDQPTLLVIEDYAKIGLPTSAKAVLLIEQDGPFETVERDMEKIEAICKKGDAVSVQTAQTEEEAFALTEARRSALSALARLKPTTILEDATVPRSEIANMVKAINDIAAKYDISICTFGHAGDGNLHPTCTTDIRNKDEMERVEQAFAEIFEKAIELGGTITGEHGVGEMKAPYLEMKLKKEGIDAMKALKAAFDPRNILNPGKMFAKDARKR”, the “soluble on expression in E. coli” value is “not soluble”. Next, “MGSDKIHHHHHHMDPIEFIQKSASSIASTMHKLKLKYNPFSEKPIRGNTKFFVGRVSELREIGEILGSALHGSVANAAIVGTKGIGKSSMLNIIYYATKKQGHWVVEMTASQVTPRQFLIQLLYNILTENIITMSGTIKSDYMEHSSRILDMYRKLNNYGDKVPIHYPRERIERDLEYLINEVKSPDKLCIILIDEADQFAKKSCLSLLQFFHSFLYEEGILTFMAGSPTLMDDLTKISPPIKDRIPKIINMPPLSKDESYDLIRRRLEDAHIDGAEEFEPFTEEAIHKIVEECDGIPRKIIMTCSESISIAIRKGLTKIDEKVVKEAMHSLGISVGHQILNHLTPAQSEIVRAMAELGGSATVTQLAEYLKKSPSTIGTHLSDIYEMGYIYKEREGNNVYYKLSKELRDVLIGEDDELEM”: “not soluble”; “MSLTPQQVFVKCHFDYNPYNDNLIPCKEAGLKFSKGEILQIVNREDPNWWQASHVKEGGSAGLIPSQFLEEKRKAFVRRDWDNSGPFCGTISSKKKKKMMYLTTRNAEFDRHEIQIYEEVAKMPPFQRKTLVLIGAQGVGRRSLKNRFIVLNPTRFGTTVPFTSRKPREDEKDGQAYKFVSRSEMEADIKAGKYLEHGEYEGNLYGTKIDSILEVVQTGRTCILDVNPQALKVLRTSEFMPYVVFIAAPELETLRAMHKAVVDAGITTKLLTDSDLKKTVDESARIQRAYNHYFDLIIINDNLDKAFEKLQTAIEKLRMEPQWVPISWVYEGHHHHHH”: “soluble”. Then “DLYDDDDKDPTLMKISRGLLKTILEAAKSAHPDEFIALLSGSKDVMDELIFLPFVSGSVSAVIHLDMLPIGMKVFGTVHSHPSPSCRPSEEDLSLFTRFGKYHIIVCYPYDENSWKCYNRKGEEVELEVVEKD”, with “soluble”. In the case of “MSNDQSAMNELHWLIDMVQTIEVGLVVLDRDYNIQLWNGFMENHSGVSPNSIKGQNLFSRFPDLPATWLKQKMESVFMLKNRAFISWEQRPYVFQFKNYRPITGRADFMYQNVTLLPLASLTGKITHISVIVYDVTDIAVNKLEHHHHHH”, the “soluble on expression in E. coli” value is given as “soluble”. Next, “FNHPASAPYIQELATICQQLAQRLQRPVRLLEVGTRTGRAAESLLAQLNAGQIEYVGLEQSQEMLLSARQRLAPWPGARLSLWNADTLAAHAHSADIIWLNNALHRLLPEDPGLLATLQQLAVPGALLYVMEFRQLTPSALLSTLLLTNGQPEALLHNSADWAALFSAAGFNCQH”: “not soluble”.

For the sequence “GEVDMTIRGNITYSKNEVLEKDEENQVYSYLYQKGYRVDQVKGLIAEGLFADYDDIRTSPKQEFGTVQPGDIKYKDVNGDGVVNDNDKVAIGATTTPNLVYGIGASFAWKGIDVNVHFQGAGKSTFPIYGKCVYAFSESDWGNIFKDMISDRWVDSETAAKLGLHANENPNATYPRLTYGENKNNQQTSTYWMRDGRYIRLKNLDIGYTLPKSIVNKLHFNNIRIYIAGSNLITWSKFKTWDPETGNPRGEAYPLTKSVTMGLSVNL”, the “soluble on expression in E. coli” value is given as “not soluble”. As to “MPKKILFTGGGTVGHVTLNLILIPKFIKDGWEVHYIGDKNGIEHTEIEKSGLDVTFHAIATGKLRRYFSWQNLADVFKVALGLLQSLFIVAKLRPQALFSKGGFVSVPPVVAAKLLGKPVFIHESDRSMGLANKIAYKFATTMYTTFEQEDQLSKVKHLGAVTKVFKDANQMPESTQLEAVKEYFSRDLKTLLFIGGSAGAHVFN”, the “soluble on expression in E. coli” value is listed as “not soluble”. Next, “TEFGSELKSFPEVVGKTVDQAREYFTLHYPQYNVYFLPEGSPVTRDLRYNRVRVFYNPGTNVVNHVPHVG”: “soluble”; “MGHHHHHHSHNSSSCPEIQGFLHVKELGKKSWKKLYVCLRRSGLYCSTKGTSKEPRHLQLLADLEDSNIFSLIAGRKQYNAPTDHGLCIKPNKVRNETKELRLLCAEDEQTRTCWMTAFRLLKYGMLLYQNYRIPQQRKALLSPFSTPVRSVSENSLVAMDFSGQTGRVIENPAEAQSAALEEGHAWRKRSTRMNILGSQSPLHPSTLSTVIHRTQ”: “not soluble”. “MGSDKIHHHHHHMKCFFESEEFEKAVEKIDRLYEKVDSIEEAEIAFLREKKPFQGVAVVKEETYTIYKTGEKLVELEDPEKAASIAYILAGEKLLSGGWVRRMVSGLLQAMIVLMEIEDENGWSHSQRVARLAERVGKKLGLSEEKLSLLREYAMLHDVGKIGIEQLMLYTPTRIRIFEQYPQDHTIMGSVFLASLEVLWDVVPIVRHHHENWDGTGYPDGLKGEEIPLEARIISVCDYYDVLTNFVSSEWEGRTKTHEEALEIIKKEAGKKFDPKVVEAFLEIFSDEAVE”: the “soluble on expression in E. coli” value is “not soluble”. As to “MAHHHHHHMSRFPEARKQSVQVTRHCGIASQLVTEVNGRNLTHLSVLEQEMLASSNVTEHSRQMMDVVQDPKTDIDDALRMVMLYALRYEKVGGNNTAQLKEMLLKRNCPMERISLIDRLLEYGGADKRLHELFRTSTGHILKIVAKTVGQFGKDIQNVLTQHVPLMKKVINRVYNGTLSEQKYPVQEVVGSPISVSAVPTIRAKDIIIVMVGGVTYSEAMLLYQINQGQVSNNVESLMNLGKNVTRLVSGDSTAKSASGEPYTEKIEARVTLLSTSMIDSKDFIHSLPS”, the “soluble on expression in E. coli” value was “not soluble”. Next, “GSHMMGAKMAESLRLTCLACGQANKVPSDRLAAGPKCGICGAGLITGKVAGIDPAILARAERDDLPLLVDFWAPWCGPCRQMAPQFQAAAATLAGQVRLAKIDTQAHPAVAGRHRIQGIPAFILFHKGRELARAAGARPASELVGFVRGKLGARA”: “soluble”; “STNPKPQRKTKRNTNRRPQDVKFPGGGQIVGGVYLLPRRGPRLG”: “soluble”; “ASGFAGHLSVGFSPVVGPVVLPESIRRFRAAYPDVLVSVIEASIDLLLPGLRNGDFDIVVGRLEEVAMPEDVRCETLYDEPVCLVAGRAHPLAGRRRISWEDAQAYPWISPQQGTPLRMRLEMELAVAGQPLPRHAVESTSVQTNVALLDRS”: “not soluble”. Next, “MSINIEQAIIHEISQDSQGQLRCRLRPQPLLNGQAVEMMLEELHQTYTSKSGKGFGYFGIHGDDGEANPAFANALKEYRAGDLGFVEFTGQASKLLQEELAKYDFSQGGFLLMSCYTSMASDYLFVALLSAKSSMTVLDDMELSQNNHLDLNNIQLAARIDLTELQADKDSRKYISFIRGRAGRKVADFFLDFMGCVEGVNTKAQNKTLMNAVEDFVASSDLTKEERQQCRNKVFEYCSERFDEGADIEIKDLADELADQGMESFYDFARGGSYELDEEFPADKSTLRQLKKFSGTGGGVTISFDGGHLGQRVIYDPISDTILIKGVPANLKDQLDRRLKGE”: “soluble”.

These data come from the DeepSol protein solubility set.
